Results on eight molecules are retold here after patent publication US20260274985A1 (MYTHIC THERAPEUTICS, published 2026).

First the molecules themselves.
B1: MYT11652 (antibody, V domains shown)
VH: QVQLVQSGAEVKKPGASVKVSCKASGYTFTTAGMQWVRQAPGQGLEWMGWINTHSHVPKYAEDFKGRVTISADTSTSTAYLQLSSLKSEDTAVYYCARSGFGSSYWYFDVWGQGTLVTVSS
VL: DIQMTQSPSSLSASVGDRVTITCKASQDVSTAVAWYQQKPGKAPKLLIYSASYRYTGVPSRFSGSGSGTDFTLTISSLQPEDFAVYYCQQHYITPLTFGQGTKLEIK
notes: IgG from supernatant; His at HCV position 56; also called datopotamab variant H2 07
B2: MYT11656 (antibody, V domains shown)
VH: QVQLVQSGAEVKKPGASVKVSCKASGYTFTTAGMQWVRQAPGQGLEWMGWINTHSGVPKHAEDFKGRVTISADTSTSTAYLQLSSLKSEDTAVYYCARSGFGSSYWYFDVWGQGTLVTVSS
VL: DIQMTQSPSSLSASVGDRVTITCKASQDVSTAVAWYQQKPGKAPKLLIYSASYRYTGVPSRFSGSGSGTDFTLTISSLQPEDFAVYYCQQHYITPLTFGQGTKLEIK
notes: IgG from supernatant; His at HCV position 60; also called datopotamab variant H2 11
B3: MYT11657 (antibody, V domains shown)
VH: QVQLVQSGAEVKKPGASVKVSCKASGYTFTTAGMQWVRQAPGQGLEWMGWINTHSGVPKYHEDFKGRVTISADTSTSTAYLQLSSLKSEDTAVYYCARSGFGSSYWYFDVWGQGTLVTVSS
VL: DIQMTQSPSSLSASVGDRVTITCKASQDVSTAVAWYQQKPGKAPKLLIYSASYRYTGVPSRFSGSGSGTDFTLTISSLQPEDFAVYYCQQHYITPLTFGQGTKLEIK
notes: IgG from supernatant; His at HCV position 61; also called datopotamab variant H2 12
B4: MYT11659 (antibody, V domains shown)
VH: QVQLVQSGAEVKKPGASVKVSCKASGYTFTTAGMQWVRQAPGQGLEWMGWINTHSGVPKYAEHFKGRVTISADTSTSTAYLQLSSLKSEDTAVYYCARSGFGSSYWYFDVWGQGTLVTVSS
VL: DIQMTQSPSSLSASVGDRVTITCKASQDVSTAVAWYQQKPGKAPKLLIYSASYRYTGVPSRFSGSGSGTDFTLTISSLQPEDFAVYYCQQHYITPLTFGQGTKLEIK
notes: IgG from supernatant; His at HCV position 63; also called datopotamab variant H2 14
B5: MYT11655 (antibody, V domains shown)
VH: QVQLVQSGAEVKKPGASVKVSCKASGYTFTTAGMQWVRQAPGQGLEWMGWINTHSGVPHYAEDFKGRVTISADTSTSTAYLQLSSLKSEDTAVYYCARSGFGSSYWYFDVWGQGTLVTVSS
VL: DIQMTQSPSSLSASVGDRVTITCKASQDVSTAVAWYQQKPGKAPKLLIYSASYRYTGVPSRFSGSGSGTDFTLTISSLQPEDFAVYYCQQHYITPLTFGQGTKLEIK
notes: IgG from supernatant; His at HCV position 59; also called datopotamab variant H2 10
B6: MYT11658 (antibody, V domains shown)
VH: QVQLVQSGAEVKKPGASVKVSCKASGYTFTTAGMQWVRQAPGQGLEWMGWINTHSGVPKYAHDFKGRVTISADTSTSTAYLQLSSLKSEDTAVYYCARSGFGSSYWYFDVWGQGTLVTVSS
VL: DIQMTQSPSSLSASVGDRVTITCKASQDVSTAVAWYQQKPGKAPKLLIYSASYRYTGVPSRFSGSGSGTDFTLTISSLQPEDFAVYYCQQHYITPLTFGQGTKLEIK
notes: IgG from supernatant; His at HCV position 62; also called datopotamab variant H2 13
B7: MYT11654 (antibody, V domains shown)
VH: QVQLVQSGAEVKKPGASVKVSCKASGYTFTTAGMQWVRQAPGQGLEWMGWINTHSGVHKYAEDFKGRVTISADTSTSTAYLQLSSLKSEDTAVYYCARSGFGSSYWYFDVWGQGTLVTVSS
VL: DIQMTQSPSSLSASVGDRVTITCKASQDVSTAVAWYQQKPGKAPKLLIYSASYRYTGVPSRFSGSGSGTDFTLTISSLQPEDFAVYYCQQHYITPLTFGQGTKLEIK
notes: IgG from supernatant; His at HCV position 58; also called datopotamab variant H2 09
B8: MYT11653 (antibody, V domains shown)
VH: QVQLVQSGAEVKKPGASVKVSCKASGYTFTTAGMQWVRQAPGQGLEWMGWINTHSGHPKYAEDFKGRVTISADTSTSTAYLQLSSLKSEDTAVYYCARSGFGSSYWYFDVWGQGTLVTVSS
VL: DIQMTQSPSSLSASVGDRVTITCKASQDVSTAVAWYQQKPGKAPKLLIYSASYRYTGVPSRFSGSGSGTDFTLTISSLQPEDFAVYYCQQHYITPLTFGQGTKLEIK
notes: IgG from supernatant; His at HCV position 57; also called datopotamab variant H2 08

For the experiment, the target named is T1, Human TROP2 Protein, His Tag (human, UniProt P09758 27-274).
T1 construct: Bought protein; also called TACSTD2; not shown: His tag
T1 sequence (looked up): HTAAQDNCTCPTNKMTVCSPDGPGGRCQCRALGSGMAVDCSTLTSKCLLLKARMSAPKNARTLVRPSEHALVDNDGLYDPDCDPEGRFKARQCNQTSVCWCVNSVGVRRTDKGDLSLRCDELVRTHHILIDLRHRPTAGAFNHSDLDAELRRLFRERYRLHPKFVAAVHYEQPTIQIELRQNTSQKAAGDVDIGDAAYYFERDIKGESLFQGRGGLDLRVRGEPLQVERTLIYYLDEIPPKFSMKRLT
Nature of the experiment: BLI (Octet). In general terms: Biolayer interferometry detects binding as a change in optical thickness at a sensor tip.
In the case of B1, the binding result was “binds”.

Consider B2, for which the binding result is recorded as “binds”.

For the molecule B3, the binding result is on record as “binds”.

Turning to B4, the binding result was “binds”.

Take B5: the binding result is listed as “binds”.

As for B6, the binding result is “binds”.

On to B7, for which the binding result is “binds”.

In the case of B8, the binding result is recorded as “binds”.
